The source of these data is patent US20130171217A1, “ENZYMATIC PERACID GENERATION FOR USE IN SKIN CARE PRODUCTS” (E I DU PONT DE NEMOURS AND COMPANY, priority 2010, published 2013).

Data set [1] in a line: One-step enzymatic PAA generation, HPLC peracetic acid assay. It is filed as biochemical. The procedure:
Determination of the peracetic acid (PAA) concentration in the reaction mixtures was performed according to the method described by Pinkernell et al., Anal. Chem. 1997, 69(17):3623-3627. Aliquots (0.040 mL) of the reaction mixture were removed at predetermined times and mixed with 0.960 mL of 5 mM phosphoric acid in water; adjustment of the pH of the diluted sample to less than pH 4 immediately terminated the reaction. The resulting solution was filtered using an ULTRAFREE® MC-filter unit (30,000 Normal Molecular Weight Limit (NMWL), Millipore cat #UFC3LKT 00) by centrifugation for 2 min at 12,000 rpm. An aliquot (0.100 mL) of the resulting filtrate was transferred to 1.5-mL screw cap HPLC vial (Agilent Technologies, Palo Alto, Calif.; #5182-0715) containing 0.300 mL of deionized water, then 0.100 mL of 20 mM MTS (methyl-p-tolyl-sulfide) in acetonitrile was added, the vials capped, and the contents briefly mixed prior to a 10 min incubation at ca. 25° C. in the absence of light. To each vial was then added 0.400 mL of acetonitrile and 0.100 mL of a solution of triphenylphosphine (TPP, 40 mM) in acetonitrile, the vials re-capped, and the resulting solution mixed and incubated at ca. 25° C. for 30 min in the absence of light. To each vial was then added 0.100 mL of 10 mM N,N-diethyl-m-toluamide (DEET; HPLC external standard) and the resulting solution analyzed by HPLC (Waters Alliance 2695, Waters Corporation; MA).
Supelco Discovery C8 column (10 cm×4.0-mm, 5 μm) (cat. #569422-U) w/precolumn Supelco Supelguard Discovery C8 (Sigma-Aldrich; cat #59590-U); 10 microliter injection volume; gradient method with CH3CN (Sigma-Aldrich; #270717) and deionized water at 1.0 mL/min and ambient temperature:
The first method (referred to herein as the “one-step approach”) comprises combining different amounts of at least one CE-7 perhydrolase with triacetin (an example of a suitable ester substrate) and hydrogen peroxide to generate peracetic acid. Hair bundles were inserted into “one step approach” solutions for 15 min immediately after mixing the enzyme solution with triacetin solution (final concentration was about 100 mM) and H2O2 solution (final concentration was about 250 mM). The hair samples were rinsed with water and dried. The method was repeated for another 15 times (total application was 16 times). In one experiment, two perhydrolase enzymes were used, i.e., untargeted T. maritima variant C277S (“C277S”; “PAH”; SEQ ID NO: 293) and “C277S-HC263” (SEQ ID NO: 288). The concentration of peracetic acid in solution after 15 min was evaluated by HPLC.

The nature of data set [2]: Two-step treatment of hair tresses, tress tensile strength. As to the method: Medium brown hair was used in these examples. Stock hair swatches were custom made by International Hair Importers (Glendale, N.Y.). Each swatch had 1500 mg of 50% reversed hair, soft glued in the middle with glue thickness of 1 mm and width of 2 cm.
Test-hair-sample consisted of a hair bundle of approximately 50 mg hair of 4 cm length, held together by a 1 mm thick, 2 mm wide and 5 mm long glue strip. A sheet of BYTAC® (TYPE VF-81, Saint-Gobain Performance Plastics, Wayne, N.J.) was attached to a polystyrene cover-plate, providing a TEFLON®-coated test-surface for mounting and treatment of hair. A strip of double-sided scotch tape was applied on the BYTAC® surface, closer to the top edge of the test plate. The glued side of the test-hair-sample was pressed down on the exposed side of the tape, making sure that the unglued hair strands are completely clear of the tape. The glued parts of the tress and exposed double-sided tape surface were covered with a strip of clear single-sided tape. Although the method is described for a single test-hair-tress, 4 tresses were used for each test condition and were placed side-by-side during the entire treatment.
The test tress was wetted by tap water and the excess water was absorbed with a paper towel. The calculated volume of the enzyme formulation was applied and was worked in gently and evenly into hair strands with gloved fingers for ˜30 seconds and let the formulation soak in for the specified deposition time. The tress was then rinsed with tap water agitated through a peristaltic pump for 20 seconds, to completely remove the surfactant.
Excess water was removed from the wetted tress from the previous step by absorption on a paper towel. The requisite volumes of the substrates (H2O2 and triacetin (TA)) were applied onto the test-tress. The mixture was rubbed into the hair strand firmly and evenly, with gloved finger for ˜1 min. The tress was left semi-covered for the specified treatment time.
Test-hair was washed with a diluted surfactant solution by rubbing the surfactant into hair with enough vigor to foam, for one minute to remove all traced of oils and residues arising during tress preparation or from previous cycles. Hair was rinsed thoroughly with tap water, agitated through a peristaltic pump for 35 seconds, while gently opening tresses with gloved fingers to ascertain that all adherents (surfactant or moisturizer) are dislodged. Excess moisture was absorbed by pressing down the paper towel over the tress. This would mark the end of one cycle. Treatment cycles were repeated starting from the enzyme-deposition step until the desired number of cycles was reached.
Two samples from each experiment were subjected to Tensile assay as described in Example 23, to determine the extent of hair-weakening.
The following experiments followed the general method of treatment disclosed in Example 25. Solutions were made in 5% TWEEN®-20 surfactant in 50 mM citrate buffer at pH 6. […] H2O2 and triacetin, formulations were made according to Example 24, in 20% LUBRIDERM® lotion in 50 mM citrate buffer at pH 6. After application of the reagents, the treatment was allowed to continue for 24 hr, as in daily application. TWEEN®-20 (5% in 50 mM citrate buffer at pH 6) was used for the final surfactant wash. The treatment was repeated for 15 additional cycles, 16 days in all.
The following experiments followed the general method of treatment disclosed in Example 26, except that after application of the reagents, the treatment was allowed to continue for shorter times per cycle rather than 24 hours per cycle.
Enzyme solutions were made in 0.5% or 5% TWEEN®-20 surfactant in 50 mM citrate buffer at pH 6. […] H2O2 and triacetin, formulations were made according to Example 24, in 20% LUBRIDERM® lotion (Johnson & Johnson, New Brunswick, N.J.) in 50 mM citrate buffer at pH 6. After application of 400 μL each of the reagents, the treatment was allowed to continue for 20-40 min. […]

The mark [3] stands for this setting: 1500 μg/mL (E/H 6), deposition 5 min, 0.5 M H2O2, 1 M TA, 2 hr/cycle.

B1: C277S: non-targeted C277S variant of the Thermotoga maritima perhydrolase, un-targeted control (protein, listed as Thermotoga maritima)
chain: MAFFDLPLEELKKYRPERYEEKDFDEFWEETLAESEKFPLDPVFERMESHLKTVEAYDVTFSGYRGQRIKGWLLVPKLEEEKLPCVVQYIGYNGGRGFPHDWLFWPSMGYICFVMDTRGQGSGWLKGDTPDYPEGPVDPQYPGFMTRGILDPRTYYYRRVFTDAVRAVEAAASFPQVDQERIVIAGGSQGGGIALAVSALSKKAKALLCDVPFLCHFRRAVQLVDTHPYAEITNFLKTHRDKEEIVFRTLSYFDGVNFAARAKIPALFSVGLMDNISPPSTVFAAYNYYAGPKEIRIYPYNNHEGGGSFQAVEQVKFLKKLFEKG
For the molecule B1, the “PAA” value in data set [1] (0.05 mg/mL enzyme, urea 10 wt %, after 15 min) stood at 6448 ppm; in data set [1] (0.25 mg/mL enzyme, urea 10 wt %, after 15 min), 14053 ppm; in data set [1] (0.5 mg/mL enzyme, urea 10 wt %, after 15 min) it was 13656 ppm. Also, in data set [2] (setting [3]), the TS stood at 2.84 N/mgH.

B2: C277S-HC263: C277S variant of Thermotoga maritima perhydrolase fused via a flexible linker to hair-binding domain HC263 (protein)
chain: MAFFDLPLEELKKYRPERYEEKDFDEFWEETLAESEKFPLDPVFERMESHLKTVEAYDVTFSGYRGQRIKGWLLVPKLEEEKLPCVVQYIGYNGGRGFPHDWLFWPSMGYICFVMDTRGQGSGWLKGDTPDYPEGPVDPQYPGFMTRGILDPRTYYYRRVFTDAVRAVEAAASFPQVDQERIVIAGGSQGGGIALAVSALSKKAKALLCDVPFLCHFRRAVQLVDTHPYAEITNFLKTHRDKEEIVFRTLSYFDGVNFAARAKIPALFSVGLMDNISPPSTVFAAYNYYAGPKEIRIYPYNNHEGGGSFQAVEQVKFLKKLFEKGGPGSGGAGSPGSAGGPGSPSAQSQLPDKHSGLHERAPQRYGPEPEPEPEPIPEPPKEAPVVIEKPKPKPKPKPKPPAHDHKNQKETHQRHAAGSGGGGSPHHHHHH
For B2, the PAA generated result in data set [1] (0.05 mg/mL enzyme) is given as “about 0.2 wt %”. Besides, the “PAA” value turned out to be 1983 ppm in data set [1] (0.05 mg/mL enzyme, urea 0 wt %, after 15 min); 3948 ppm in data set [1] (0.25 mg/mL enzyme, urea 0 wt %, after 15 min); 4132 ppm in data set [1] (0.5 mg/mL enzyme, urea 0 wt %, ~100 mM triacetin, ~250 mM H2O2, after 15 min). Further, the “perhydrolase activity lower than C277S” value in data set [1] (same weight basis, under testing condition) was 2-3 times. Further, the TS in data set [2] (750 μg/mL (E/H 3), 0.25 M H2O2, 0.25 M TA, 20 min/cycle, 16 cycles) was 2.64 N/mgH; in data set [2] (750 μg/mL (E/H 3), 0.25 M H2O2, 0.25 M TA, 24 hr/cycle, 16 cycles), 1.51 N/mgH; in data set [2] (750 μg/mL (E/H 3), 0.5 M H2O2, 0.5 M TA, 20 min/cycle, 16 cycles), 2.09 N/mgH; in data set [2] (750 μg/mL (E/H 3), 0.5 M H2O2, 0.5 M TA, 24 hr/cycle, 16 cycles) it was 0.25 N/mgH; in data set [2] (750 μg/mL (E/H 3), 0.75 M H2O2, 1 M TA, 40 min/cycle), 2.49 N/mgH; in data set [2] (1500 μg/mL (E/H 5), 0.75 M H2O2, 1 M TA, 20 min/cycle) it was 2.47 N/mgH. Further, the TS in data set [2] (setting [3]) is listed as 1.62 N/mgH; in data set [2] (1750 μg/mL (E/H 7), 0.25 M H2O2, 0.25 M TA, 20 min/cycle, 16 cycles), 2.33 N/mgH; in data set [2] (1750 μg/mL (E/H 7), 0.25 M H2O2, 0.25 M TA, 24 hr/cycle, 16 cycles), 0.77 N/mgH; in data set [2] (1750 μg/mL (E/H 7), 0.5 M H2O2, 0.5 M TA, 20 min/cycle, 16 cycles) it was 1.90 N/mgH; in data set [2] (1750 μg/mL (E/H 7), 0.5 M H2O2, 0.5 M TA, 24 hr/cycle, 16 cycles), 0.14 N/mgH; in data set [2] (1750 μg/mL (E/H 7), 0.75 M H2O2, 1 M TA, 40 min/cycle), 1.65 N/mgH. For the same molecule, the TS stood at 1.73 N/mgH in data set [2] (2500 μg/mL (E/H 10), 0.75 M H2O2, 1 M TA, 20 min/cycle); 1.67 N/mgH in data set [2] (2500 μg/mL (E/H 10), 0.75 M H2O2, 1 M TA, 40 min/cycle); 3.44 N/mgH in data set [2] (2500 μg/mL (E/H 10), 20 min/cycle, 1 cycle); 3.13 N/mgH in data set [2] (2500 μg/mL, 4 cycles); 2.34 N/mgH in data set [2] (2500 μg/mL, 8 cycles); 1.66 N/mgH in data set [2] (2500 μg/mL, 12 cycles). In data set [2] (2500 μg/mL, 16 cycles), this molecule came in with a TS of 0.95 N/mgH. In addition, the “Predicted TS for 24 h/cycle” value in data set [2] (750 μg/mL, from 40 min/cycle) was 1.00 ^ N/mgH; in data set [2] (1500 μg/mL, from 20 min/cycle) it was 0.97 ^ N/mgH; in data set [2] (1750 μg/mL, from 40 min/cycle, (d) predicted disintegration of hair), −0.13(d) N/mgH; in data set [2] (2500 μg/mL, from 20 min/cycle, (d) predicted disintegration of hair in 16 × 24 h/cycle), −0.02(d) N/mgH; in data set [2] (2500 μg/mL, from 40 min/cycle, (d) predicted disintegration of hair), −0.10(d) N/mgH.

B3: SEQ ID NO: 323: S54V variant of the aryl esterase from Mycobacterium smegmatis fused to hair binding domain HC263 via a flexible linker (protein)
chain: MAKRILCFGDSLTWGWVPVEDGAPTERFAPDVRWTGVLAQQLGADFEVIEEGLVARTTNIDDPTDPRLNGASYLPSCLATHLPLDLVIIMLGTNDTKAYFRRTPLDIALGMSVLVTQVLTSAGGVGTTYPAPKVLVVSPPPLAPMPHPWFQLIFEGGEQKTTELARVYSALASFMKVPFFDAGSVISTDGVDGIHFTEANNRDLGVALAEQVRSLLGPGSGGAGSPGSAGGPGSPSAQSQLPDKHSGLHERAPQRYGPEPEPEPEPIPEPPKEAPVVIEKPKPKPKPKPKPPAHDHKNQKETHQRHAAGSGGGGSPHHHHHH
With B3, in data set [2] (setting [3]), the TS is on record as 0.28 N/mgH.
